From PMC2895232
Blank lines part the entries; values can stand above or below the substance they belong to.

How the values were obtained:
[1] = target: ParBΔ121–183 of Pseudomonas aeruginosa (Pseudomonas aeruginosa); test: cross-linking; glutaraldehyde cross-linking in vitro of purified His6-tagged ParB proteins to determine the oligomeric state; WT ParB as the control
[2] = test system: ParB1-229 (Pseudomonas aeruginosa PAO1161); test: EMSA; conditions: not given in the material
[3] = target: wild-type ParB of Pseudomonas aeruginosa (Pseudomonas aeruginosa); test: cross-linking; glutaraldehyde cross-linking in vitro of purified His6-tagged ParB proteins to determine the oligomeric state; WT ParB as the control

Substance: ParBΔ121–183 of Pseudomonas aeruginosa (natural protein)
stoichiometry N [1]: 2

Substance: parS
binding signal (fold of WT affinity (>5-fold decreased)) [2]: < 0.2

stoichiometry N [3]: 2
Substance: wild-type ParB of Pseudomonas aeruginosa (natural protein)
